Experimental findings from US20150160214A1, “Quantitation of Cellular Adhesion Dynamics Across Immobilized Receptors Under Rheological Shear Flow” (Mayo Foundation for Medical Education and Research, priority 2013, published 2015) are described below.

For one assay, the system named is platelet GP1bα. The assay is described as follows: Platelet pause times and translocation velocities on immobilized A1 under shear flow, parallel-plate flow chamber (Example 1). The class given is cell-based, human. Particulars: as a function of shear rate. The text has this: To understand the effect of the N-terminal peptide on the function of the A1-domain of vWF, the protein was expressed with (A1-1238) and without the N-terminal peptide (A1-1261). The inventor used a flow chamber to measure the dynamics of platelet interactions with A1-1238 and A1-1261. Each domain variant was immobilized on glass slides with a modified Cu^2+ chelating chemistry that enabled surface capture via the N-terminally fused histidine tag. This method ensured reproducible capture of the proteins eliminating possible structural issues associated with nonspecific immobilization on plastic or glass. The slides were completely inert to platelets. Next, 1 mL of citrated whole blood followed by Tris buffered saline was perfused at low shear to enable platelets to attach to the surface immobilized domains. After red cells were perfused away with buffer, the translocation of the remaining attached platelets over the surfaces was recorded at each shear rate and the velocities and pause times calculated from the coordinate data of each platelet on the surface as described in the methods. […] In addition, the translocation velocities were increased for A1-1238 relative to A1-1261. To determine if this N-terminal sequence could inhibit the catch bond when free in solution, the inventor incubated surface immobilized A1-1261 with excess free peptide and added the free peptide to 1 mL of whole blood and to our perfusion buffer and performed the assay.
Determination of platelet pause times. Determination of platelet pause times A Glycotech† rectangular parallel-plate flow chamber was mounted to slides with a chelated Cu 21 surface obtained from Microsurfaces Inc. # to which the A1-1261 and A1-1238 domains in TBS were immobilized by the 63His-Tag. Citrated whole blood (1 mL) obtained from informed consent of healthy donors with approval from the Baylor College of Medicine institutional review board followed by buffer was perfused through the chamber at 300s21 for A1-1261 and 700s21 for A1-1238 shear rate to attach platelets to the surface immobilized proteins using a syringe driven variable flow rate pump. The shear was increased incrementally and 1 min movies were recorded at 25 frames/s in phase contrast with 232 pixel binning on a Zeiss Axiocam MRm camera attached to a Zeiss Axio Observer D1 inverted microscope. Tracking analysis was performed using Mediacybernetics ImagePro Premier§. The resulting X-Y coordinate data for each platelet track was differentiated into instantaneous velocities using a Savitzky-Golay algorithm (Savitzky:1964) with a five data point window size and a second-order polynomial implemented into a Mathamatica notebook. These platelet tracks were retained for statistical analysis if the platelet was present for at least 1 s and travelled a total distance greater than 1 lm. Distance travelled in pixels was converted to lm given the camera pixel size=6.45 μm^2, pixel binning, and microscope magnification=400×. Pause times were determined by the amount of time (seconds) a platelets velocity was =0±0.13 μm/s, within the noise. Pause times for all platelet tracks are reported as the mean of the medians. Examples of this analysis for individual platelets and for multiple platelets are provided in the Supporting Information.
Frame by frame platelet trajectory analysis. Tracking coordinates of individual platelets in units of pixels were exported from ImagePro Premier as a text file and imported into a Mathematica notebook that calculates a Savitzky-Golay first derivative of the total distance traveled over time (Savitzky:1964). The distance was calculated from the X and Y coordinates with the following equation.
Pause times were determined from the length of time the platelet velocity remained within 0±4 pixel/sec=0.129 μm/sec as illustrated in FIG. 8B. Median pause times were calculated from velocity time profiles for all platelet tracks, stored in a list and translated to histograms for multiple platelets. […]

Another assay addresses T1, platelet GPIbα (Homo sapiens, UniProt P07359).
T1 construct: endogenous in cells; host or cells: platelets in citrated whole blood of normal healthy volunteer donors
The assay is described as follows: Platelet adhesion to surface captured disulfide-intact A1 and RCAM A1 under shear flow (Example 2). The format is cell-based. As for the experimental part: The interaction of disulfide-intact A1 and of RCAM A1 with platelets was studied by immobilizing the proteins via the 6×His-Tag on Cellix biochips in which the internal channel surface was coated with a Cu2+ chelating chemistry. A 5 μM concentration of protein was immobilized in the biochip and citrated whole blood was perfused at a shear rate of 800 s−1 (FIG. 11B). This perfusion was followed by TBS buffer and after red blood cells cleared the channel, the shear was decremented to 100 s−1 or incremented to 9000 s−1 every two minutes at logarithmic intervals. Surface bound platelets were allowed to equilibrate at a given shear rate for 50 s and a 60 s video at 24 frames per second was recorded and analyzed as described in the methods. The internal channel surface lacking immobilized A1 domain was completely inert to platelets.
At each shear rate, platelet mean pause times and mean translocation velocities were calculated from the X-Y trajectories of moving platelets as described in the methods. Approximately 1000 platelet trajectories were analyzed at each shear rate (FIGS. 11B to 11D). The mean pause times were also calculated from the pause time survival fraction obtained from the cumulative integral of the pause time distribution (FIG. 11B) (Thomas:2006). The survival fraction exponentially decreases with faster decay rates as shear increases. Fitting the survival fraction with a bi-exponential decay function results in the apparent rate constants and amplitudes as a function of shear rate (FIG. 11C).
The determination and analysis of platelet pause times and instantaneous translocation velocities over surface captured A1 and RCAM A1 was performed as previously described (Tischer:2013). Here, the inventor used the Cellix Mims Evo syringe pump controlled by VenaFluxAssay (www.cellixltd.com). Vena8™ CGS biochips were custom designed with 800 μm width by 80 μm height microchannels bonded to glass slides with a Cu^2+ chelated PEG surface serviced by Microsurfaces Inc. (www.proteinslides.com/histag.html) to which the A1 and RCAM A1 in TBS were captured by the 6×His-Tag at a total concentration of 5 μM. Citrated whole blood was obtained from the informed consent of healthy volunteer donors with approval from the Mayo Clinic Institutional Review Board and 100 μL was perfused over the surface captured A1 domains at […]. The shear was increased or decreased in a stepwise manner to measure the dynamics of platelet adhesion at high and low shear. After allowing the flow chamber to equilibrate for 50 s at each shear rate, 1 min movies were recorded at 24 frames per second in phase contrast at 200× magnification with 2×2 pixel binning on a Zeiss AxioCam Mrm camera (6.45 μm/px) attached to a Zeiss Axio Observer.D1 inverted microscope. Tracking analysis was performed using MediaCybernetics ImagePro® Premier (www.mediacy.com/index.aspx?page=IP\_Premier) The distance travelled in the direction of flow was calculated from the coordinate data for each platelet as a function of time using √{square root over ((xt−x0)^2)}, where x0 is the coordinates of a platelet on the first frame of the movie and xt is the coordinate on subsequent frames of the movie. These trajectories were differentiated into instantaneous velocities using a Savitzky-Golay algorithm (Savitzky:1964) with a five data point window size and a second order polynomial implemented into a Mathematica (www.wolfram.com/mathematica) notebook written in our lab. Trajectories were retained for statistical analysis if the platelet was present for ≧1 s and travelled a total distance greater than 1 Distance travelled in pixels (px) was converted to (μm) using 6.45 μm/px*2/200=0.0645 μm/px. Pause times were determined by the amount of time (sec) a platelets velocity was 0±4 px/s≅0±0.23 μm/s, within the noise. Data are reported as mean velocities and pause times attained by individual platelets averaged over all platelets analyzed. […]

Some results are limits rather than exact numbers.

With “A1-1238: Recombinant human vWF A1 domain, amino acids Q1238-P1471, with N-terminal 6×His-Tag, disulfide intact”, the “Platelet translocation velocities on immobilized domain (comparison)” value in the assay with platelet GP1bα is “increased”. Besides, the “Shear rate at which platelets detach from the surface immobilized domain” value with platelet GPIbα (listed as A1) is “less than 300 s−1”; in the assay with platelet GPIbα (listed as disulfide-intact A1), ≤ 300 s⁻¹. In addition, the “Mean platelet pause time” value is reported as ~0.75 s in the assay with platelet GPIbα (shear rate 530 s−1) and ~0.9 s with platelet GPIbα (shear rate 1025 s−1).
